# Measurements: US11104673B2, “Quaternary amine compounds and antibody-drug conjugates thereof” (priority 2014, dated 2021)
# Columns and labels:
# [1] = test system: WSU-DLCL2; assay: In vitro cell proliferation assay, ADC killing of WSU-DLCL2 cells; assay type: cell-based, human
# [2] = test system: Jurkat; assay: In vitro cell proliferation assay, ADC killing of Jurkat cells; assay type: cell-based
# [3] = test system: NCI-H441; assay: EdU Prolif assay, NCI-H441; assay type: cell-based; settings: NCI-H441 cells
# [4] = test system: BJAB; assay: In vitro cell proliferation assay, ADC killing of BJAB cells; assay type: cell-based, human
molecule,measurement,setting,value
ADC1-1: Anti-Napi2b 10H1.11.4B LC K149C antibody conjugated with the Example 1 linker-drug MC-Sq-Cit-PAB Dolastatin 10 (conjugate) VH: EVQLVESGGGLVQPGGSLRLSCAASGFSFSDFAMSWVRQAPGKGLEWVATIGRVAFHTYYPDSMKGRFTISRDNSKNTLYLQMNSLRAEDTAVYYCARHRGFDVGHFDFWGQGTLVTVSS VL: DIQMTQSPSSLSASVGDRVTITCRSSETLVHSSGNTYLEWYQQKPGKAPKLLIYRVSNRFSGVPSRFSGSGSGTDFTLTISSLQPEDFATYYCFQGSFNPLTFGQGTKVEIKR,IC50,[1],44.2 nM
same,WSU-DLCL2 IC50,[1],6.63 µg/mL
same,IC50,[2],73.6 nM
same,Jurkat IC50,[2],11.04 µg/mL
same,IC50,[3],95.4 nM
same,NCI-H441 IC50,[3],14.31 µg/mL
same,BJAB IC50,[4],>20 µg/mL
same,IC50,[4],> 133 nM
